Measured values as given in US6355619B1, “Peptide tumor cell growth inhibitors” (Board of Regents, The University of Texas System, priority 1996, dated 2002).
Several values for one entry are separate records, joined by “and”; a condition that tells them apart may be missing. Equal values may be shown once. Read-outs that look alike come from different tables or passages of the source. One block for each substance: values may come before it.

Tests used:
[1] = target: MGSA/GROα receptors on Hs 294T melanoma cells; assay: cell-based or functional assay
[2] = target: MGSA/GROα receptors on Hs 294T melanoma cells; assay: 1 nM 125I-MGSA/GROα displaced by unlabeled MGSA/GROα on Hs 294T cells, Lundon II
[3] = target: MGSA/GROα receptors on RPMI-7951 melanoma cells; assay: 1 nM 125I-MGSA/GROα displaced by unlabeled MGSA/GROα on RPMI-7951 cells, Lundon II
[4] = tested on: IL-8 receptors on neutrophils; assay: Inhibition of 125I-labeled IL-8 binding to human neutrophils
Description: Therefore, in pursuing this aim, the present inventors assayed various other peptide compositions for IL-8 inhibitory activity by screening a library of 400 groups of hexapeptides. In these screening assays, ^125I-labeled interleukin-8 (10^−12 M) was mixed with 100 μM peptide, then added to neutrophils and incubated at 4° C. for 90 min. The bound radioactivity was separated from unbound by centrifugation through a dense cushion of a mixture of paraffin and silicon oils and the ^125I bound to neutrophils was counted in a gamma radiation spectrometer, allowing the results to be expressed as the percent of IL-8 binding which was inhibited.
The use of human subjects for acquisition of neutrophils was approved by the Institutional Review Board for human experimentation. For the preparation of neutrophils, human blood was anticoagulated with heparin for enzyme release studies and with 0.33% sodium citrate for other studies. For chemotactic and enzyme release studies neutrophils were separated by dextran sedimentation and erythrocyte lysis by the method of Boyum (Kohler and Milstein, 1975). For binding studies and cytotoxic studies, the neutrophils were further purified in gradients of Percoll (Pharmacia Fine Chemicals, Piscataway, N.J.) to a purity of 90-93% (Kohler and Milstein, 1975).
Recombinant human IL-8 (72 amino acids; Pepro Tech Inc., Rocky Hill, N.J.) was radioactively labeled with ^125I by the chloramine T method of Hunter and Greenwood (Hunter and Greenwood, 1962). Binding studies were performed according to Besemer et al. (1989), as follows: Neutrophils in phosphate buffered saline pH 7.4 (PBS) containing 0.1% bovine serum albumin (BSA) were incubated with labeled ligand in the presence or absence of the peptide being tested for 90 min at 4° C. to reach equilibrium and then centrifuged at 12,000×g for 3 min in Beckman B microfuge (Beckman Instruments, Fullerton, Calif.), through a cushion consisting of a mixture of paraffin oil Fisher Scientific, Fair Lawn, N.J.) and silicon oil (Serva Co., N.Y., N.Y.). The pellet and supernatant were then counted in a gamma radiation spectrometer. The non-specific binding was estimated to measure the binding in the presence of 100-fold excess of non-labeled ligand. The binding constants were calculated using the computer programs Lundon I and Lundon II.
In these studies, a screening for inhibition was carried out at 100 μM concentration of the peptide being tested, with a 10^−12 M concentration of IL-8. In the first series of studies, twenty peptides were synthesized with the carboxyl-terminal residue of RRWWCX (SEQ ID NO:23) being changed to each of the standard protein amino acids in turn.

Hs 294T melanoma cells = assay: Binding of 125I-IL-8 to Hs 294T melanoma cells; design: species or system human
Description: (§1) FIG. 12. The specificity of the receptor binding. The melanoma cells, Hs 294T (closed symbols) and RPMI-7951 (open symbols), were incubated with indicated concentrations of radiolabeled MGSA/GROα (circles) or IL-8 (triangles). The non-specific binding was estimated by the binding in the presence of 100 fold excess of unlabeled material. Specific binding which is calculated by subtracting non-specific binding from total binding is shown in this figure.
(§2) Binding studies with melanoma cell lines were performed by the method of Horuk and colleagues (Horuk et al., 1993). Briefly, the cells (1×10^5 cells/well) in 24-well plates were washed two times with Hank's Balanced Salt Solution and incubated with ^125I-labeled MGSA/GROα or IL-8 in the buffer containing 1% bovine serum albumin at 4° C. for 3 hr. The incubation was terminated by vacuum aspiration of the supernatant. The cells were washed three times in binding buffer, solubilized by the addition of 200 μl of 1% SDS, and transferred to vials for counting. The non-specific binding was estimated by measuring the binding in the presence of 100-fold excess of non-labeled ligand. The binding parameters were calculated using the Lundon II computer program (Lundon Software Inc., Chagrin Falls, Ohio).

RPMI-7951 melanoma cells = assay: Binding of 125I-IL-8 to RPMI-7951 melanoma cells
Description: as §1, §2

[5] = target: IL-8 receptors on human neutrophils (human); assay: saturation binding of 125I-IL-8 to human neutrophils, Lundon I, one-site model, no peptide
[6] = target: Receptor 1 (Table 3; class of IL-8 receptors on human neutrophils, two-site model, Lundon II) (human); assay: displacement of 1 nM 125I-IL-8 by unlabeled IL-8 on human neutrophils, Lundon II two-site model, IL-8 alone
[7] = target: Receptor 2 (Table 3; class of IL-8 receptors on human neutrophils, two-site model, Lundon II) (human); assay: as above
[8] = target: Receptor 1 (Table 3; class of IL-8 receptors on human neutrophils, two-site model, Lundon II) (human); assay: displacement of 1 nM 125I-IL-8 by unlabeled IL-8 on human neutrophils, Lundon II two-site model, +10 µM Ac-RRWWCR
[9] = target: Receptor 2 (Table 3; class of IL-8 receptors on human neutrophils, two-site model, Lundon II) (human); assay: as above
[10] = target: Receptor 1 (Table 2; class of IL-8 receptors on human neutrophils, two-site model, Lundon I) (human); assay: saturation binding of 125I-IL-8 to human neutrophils, Lundon I, two-site model, in presence of 10 µM Ac-RRWWCR-NH2
[11] = target: Receptor 2 (Table 2; class of IL-8 receptors on human neutrophils, two-site model, Lundon I) (human); assay: as above
[12] = target: Receptor 1 (Table 2; class of IL-8 receptors on human neutrophils, two-site model, Lundon I) (human); assay: saturation binding of 125I-IL-8 to human neutrophils, Lundon I, two-site model, in presence of 20 µM Ac-RRWWCR-NH2
[13] = target: Receptor 2 (Table 2; class of IL-8 receptors on human neutrophils, two-site model, Lundon I) (human); assay: as above
[14] = target: Receptor 1 (Table 2; class of IL-8 receptors on human neutrophils, two-site model, Lundon I) (human); assay: saturation binding of 125I-IL-8 to human neutrophils, Lundon I, two-site model, in presence of 40 µM Ac-RRWWCR-NH2
[15] = target: Receptor 2 (Table 2; class of IL-8 receptors on human neutrophils, two-site model, Lundon I) (human); assay: as above
[16] = target: IL-8 receptors on human neutrophils (human); assay: cell-based or functional assay
[17] = target: MGSA/GROα receptors on RPMI-7951 melanoma cells; assay: cell-based or functional assay
[18] = target: IL-8 receptors on human neutrophils (human); assay: inhibition of IL-8 binding to human neutrophils
[19] = target: MGSA/GROα receptors on Hs 294T melanoma cells; assay: inhibition of 1 nM 125I-MGSA/GROα binding to Hs 294T cells
[20] = target: MGSA/GROα receptors on RPMI-7951 melanoma cells; assay: inhibition of 1 nM 125I-MGSA/GROα binding to RPMI-7951 cells
[21] = target: IL-8 receptors on human neutrophils (human); assay: inhibition of 125I-IL-8 binding to human neutrophils, peptide 10 µM
[22] = target: IL-8 receptors on human neutrophils (human); assay: inhibition of 125I-IL-8 (10^-12 M) binding to human neutrophils, peptide 100 µM
[23] = target: IL-8 receptors on human neutrophils (human); assay: inhibition of binding of 1 nM IL-8 to human neutrophils, 90 min on ice (FIG. 10)
[24] = target: IL-8 receptors on human neutrophils (human); assay: inhibition of 125I-IL-8 binding to human neutrophils; peptide concentration not given
[25] = target: IL-8 receptors on human neutrophils (human); assay: inhibition of 1 nM 125I-IL-8 binding to human neutrophils, 90 min 4 °C, average of replicates
[26] = target: IL-8 receptors on human neutrophils (human); assay: inhibition of 125I-IL-8 binding to human neutrophils, assuming purely competitive single site model
[27] = target: IL-8 receptors on human neutrophils (human); assay: inhibition of 125I-IL-8 binding to human neutrophils, method of Example I; reference row of the heptamer table
[28] = target: IL-8 receptors on human neutrophils (human); assay: inhibition of 125I-IL-8 binding to human neutrophils
[29] = target: IL-8 receptors on human neutrophils (human); assay: inhibition of 125I-IL-8 binding to human neutrophils, method of Example I; D-amino acid heptamer series
[30] = tested on: MGSA/GROα receptors on Hs 294T melanoma cells; assay: Binding of 125I-MGSA/GROα to Hs 294T melanoma cells; design: species or system human
Description: (§3) FIG. 11A. The binding of ^125I-labeled MGSA/GROα to melanoma cell lines, Hs 294T and RPMI-7951. The melanoma cells, 1×10^5, were incubated with 1 nM ^125I-MGSA/GROα in the presence of various concentrations of unlabeled MGSA/GROα. Binding inhibition curve with Hs 294T (closed circles) and RPMI-7951 (open circles). The lines shown in the graph are the best fit curves calculated using the London II computer program.
(§4) FIG. 13. The effect of Antileukinate on the binding of radiolabeled MGSA/GROα to the melanoma cell lines. The melanoma cells, Hs 294T (closed circles) and RPMI-7951 (open circles), were incubated with 1 nM ^125I-MGSA/GROα in the presence of different concentrations of Antileukinate. The lines shown in the graph are the best fit curves calculated using the London II computer program.
(§5) Recombinant human MGSA/GROα and IL-8 were purchased form Pepro Tech Inc. (Rocky Hill, N.J.) and radioactively labeled using ^125I-labeled Bolton-Hunter reagent (DuPont-NEN, Wilmington, Del.) (Bolton and Hunter, 1973). The labeled proteins were isolated using Sephadex G-25 column (Column PD-10, Pharmacia) pre-equilibrated with PBS containing 0.1% gelatin and stored at −70° C. after the addition of 1% bovine serum albumin.
as §2

[31] = tested on: MGSA/GROα receptors on RPMI-7951 melanoma cells; assay: Binding of 125I-MGSA/GROα to RPMI-7951 melanoma cells; conditions: RPMI-7951
Description: as §3, §4, §5, §2

[32] = IL-8 alone, binding inhibition curves, Lundon II

Recombinant human IL-8 (72 amino acids), sequence (P10145 28-99 limits assumed): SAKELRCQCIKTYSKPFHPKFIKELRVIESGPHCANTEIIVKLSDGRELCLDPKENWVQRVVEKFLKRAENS
Recombinant human MGSA/GROα, sequence (P09341 35-107): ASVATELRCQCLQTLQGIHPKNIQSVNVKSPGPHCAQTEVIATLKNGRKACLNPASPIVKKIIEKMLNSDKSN

- reversal of the inhibition of Hs 294T growth by 50 µM Antileukinate [1]: 50 nM
- Kd [2]: 6 nM
- maximal binding (Bmax) (fmole/10^5 cells) [2]: 11
- Kd [3]: 3 nM
- maximal binding (Bmax) (fmole/10^5 cells) [3]: 15
Substance: Recombinant human MGSA/GROα (from UniProt P09341 35-107) (ligand)

- Bmax (fmole/10^6 cells) [5]: 174
- Kd [5]: 1.3 nM
- Bmax (fmole/10^6 cells) [6]: 38.8
- Kd [6]: 0.03 nM
- Bmax (fmole/10^6 cells) [7]: 68.8
- Kd [7]: 0.67 nM
- Bmax (fmole/10^6 cells) [8]: 11.2
- Kd [8]: 1.23 nM
- Bmax (fmole/10^6 cells) [9]: 75.6
- Kd [9]: 0.76 nM
- Bmax (fmole/10^6 cells) [10]: 91.9
- Kd [10]: 68 nM
- Bmax (fmole/10^6 cells) [11]: 90.9
- Bmax (fmole/10^6 cells) [12]: 90.9
- Kd [12]: 42.8 nM
- Bmax (fmole/10^6 cells) [13]: 76.2
- Kd [13]: 0.8 nM
- Bmax (fmole/10^6 cells) [14]: 82
- Kd [14]: 13 nM
- Bmax (fmole/10^6 cells) [15]: 44.2
- Kd [15]: 1.3 nM
Substance: Recombinant human IL-8 (72 amino acids) (from UniProt P10145 28-99) (ligand)

- chemotaxis of neutrophils stimulated with 10 nM of IL-8 [16]: 50 µM
- enzyme release from neutrophils stimulated by IL-8 [16]: 0.8 µM
- β-glucuronidase release stimulated by 100 nM of IL-8 [16]: 2 µM
- growth of Hs 294T cells (cell number after 72 hr) [1]: 18 µM and 10 µM
- growth of melanoma cells in culture [1]: 100 µM
- growth of RPMI-7951 melanoma cells (cell number after 72 hr) [17]: 31 µM
- growth of melanoma cells in culture [17]: 100 µM
- fold effectiveness against the non-acetylated peptide [18]: 2 fold
- EC50 [19]: 1000 nM
- EC50 [20]: 1000 nM
- % inhibition [21]: 20%
- % INHIB. [22]: 112%
- EC50 [23]: 25000 nM
- % Binding Inhibition [24]: 98.6%
- EC50 [25]: 13700 nM
- Ki [26]: 10000 nM
- % INHIB. [27]: 112%
Substance: Ac-RRWWCR-NH2 (peptide)

- % Binding Inhibition [24]: -0.4%
Substance: Ac-KELRCQ-NH2 (peptide)

More lines, now with the values behind:

Substance: IL-8: Recombinant human IL-8 (72 amino acids; Pepro Tech Inc.), radiolabeled ligand [reference compound]
- Bmax of IL-8, one-site model ([4]; 0 μM peptide, binding isotherms, Lundon I): 174.2 ± 14.5 fmole/10^6 cells
- Kd ([4]; 0 μM peptide, binding isotherms, Lundon I, read-out: Kd of IL-8, one-site model): 1.3 ± 0.2 nM
- Receptor 1 Bmax of IL-8 [4, 32]: 38.8 ± 0.6 fmole/10^6 cells
- Receptor 2 Bmax of IL-8 [4, 32]: 68.8 ± 0.7 fmole/10^6 cells
- Kd ([4]; IL-8 alone, binding inhibition curves, Lundon II, read-out: Receptor 1 Kd of IL-8): 0.03 nM
- Kd ([4]; IL-8 alone, binding inhibition curves, Lundon II, read-out: Receptor 2 Kd of IL-8): 0.67 ± 0.04 nM
- specific binding of IL-8 to melanoma cells (Hs 294T melanoma cells): no specific binding
- specific binding of IL-8 to melanoma cells (RPMI-7951 melanoma cells): no specific binding

Substance: Ac-rrwwcrc-NH2 (peptide)
- fold potency against Ac-rrwwcr-NH2 (SEQ ID NO:1) [28]: 4 fold
- % of IL-8 binding prevented [21]: 80%
- % INHIB. [29]: 108%

Substance: MGSA/GROα: Recombinant human MGSA/GROα (Pepro Tech Inc.), 73 amino acid α-chemokine
- Kd [30]: ~6 nM
- maximal binding (Bmax) of MGSA/GROα [30]: 11 fmole/10^5 cells
- Kd [31]: ~3 nM
- maximal binding (Bmax) of MGSA/GROα [31]: 15 fmole/10^5 cells
